The subject of assay [1] is MMP-7 in HT-29 cells. Put plainly: MMP-7 expression on IL-1α treatment. The conditions noted are these: 1 ng/ml IL-1α, syndecan-2- and Y51A-expressing HT-29 cells. Format: cell-based, human. The procedure:
Figure 6 Tyrosine 51 of the syndecan-2 extracellular domain is involved in regulating pro-MMP-7 activation. (A) HT-29 cells were transiently transfected with 1 µg of vectors encoding SDC2 or the interaction-defective syndecan-2 mutant, Y51A, and the mRNA expression levels of SDC2 and MMP-7 were evaluated by RT-PCR (top). Conditioned media (CM) were collected and proteolytic activity was measured using quenched fluorescence peptide cleavage assay. The relative activity was normalized versus the fluorescence of a vector control (bottom). Data are shown as mean ± S.D. (n = 3), **p < 0.01 versus VEC or SDC2. (B) HT-29 cells were stably transfected with vectors encoding SDC2 or Y51A. The expression levels of the target mRNAs were analyzed by RT-PCR and quantitative real-time PCR (q-PCR) of three independent experiments was performed and normalized to GAPDH expression. Data are shown as mean ± S.D. (n = 3), *p < 0.05, **p < 0.01 versus VEC or SDC2 (left). […] CM were collected and proteolytic activity was measured using quenched fluorescence peptide cleavage assay (right bottom). […] The mRNA expression levels of SDC2 and MMP-7 were evaluated with RT-PCR (left top). CM were collected from the indicated cells and immunoblotted with an anti-MMP-7 antibody (left bottom) or subjected to quenched fluorescence peptide cleavage activity assay (right). […]

The test system of assay [2] is MMP-7 in HT-29 cells. The conditions noted are these: cited from earlier work. The text has this: Since syndecan-2 is known to mediate the activation of pro-MMP-7, we investigated how interrupting their interaction could affect syndecan-2-mediated MMP-7 activation. Firstly, we investigated whether the expression of syndecan-2 affects that of MMP-7.

B1: IL-1α: IL-1α was purchased from R&D Systems (protein, UniProt P01583 113-271, looked up)
Interleukin-1 alpha: SAPFSFLSNVKYNFMRIIKYEFILNDALNQSIIRANDQYLTAAALHNLDEAVKFDMGAYKSSKDDAKITVILRISKTQLYVTAQDEDQPVLLKEMPEIPKTITGSETNLLFFWETHGTKNYFTSVAHPNLFIATKQDYWVCLAGGPPSITDFQILENQA
As to B1, the MMP-7 expression result with MMP-7 in HT-29 cells [1] is “upregulation of MMP-7”. Further, the “MMP-7 expression in colon cancer cells” value in the assay with MMP-7 in HT-29 cells [2] is “known to induce MMP-7 expression”.

Source of the values: article PMC6650482, “Tyrosine 51 residue of the syndecan-2 extracellular domain is involved in the interaction with and activation of pro-matrix metalloproteinase-7” (Scientific Reports, 2019).
